Test results taken from article PMC11993637.

Target: human hormone-sensitive lipase (HSL), adipocyte isoform (human)
Experiment: cryo-EM structure

human hormone-sensitive lipase (HSL), adipocyte isoform (enzyme)
stoichiometry N: 2
